Experimental data: patent US20180360932A1 (OPKO BIOLOGICS, published 2018)

Assays:
[1] = biological target: MOD-5014 (FVIIa-CTP3, activated Factor VII-CTP-CTP-CTP) (human) (UniProt P08709); assay: cell-based or functional assay
[2] = biological target: NovoSeven (commercial recombinant human FVIIa) (human) (UniProt P08709); assay: cell-based or functional assay

“Anti thrombin III (ATIII) (from UniProt P01008 33-464)” was tested, and the % Inhibition of clotting activity, AT 1.050 ng/mL [1] was 25%, the % Inhibition of clotting activity, AT 10.5 ng/mL [1] was 28% and the % Inhibition of clotting activity, AT 105 ng/mL [1] was 25%. It also gave a % Inhibition of clotting activity, AT 10,500 ng/mL [1] of 25%, a % Inhibition of clotting activity, AT 105000 ng/mL [1] of 62% and a % Inhibition of clotting activity, AT 525000 ng/mL [1] of 100%. For the same substance, the Activity (mU/mL), clotting assay, AT 0 ng/mL (no inhibitor) [1] was 70.8 mU/mL, the Activity (mU/mL), clotting assay, AT 1.050 ng/mL [1] was 52.9 mU/mL and the Activity (mU/mL), clotting assay, AT 10.5 ng/mL [1] was 50.7 mU/mL. The Activity (mU/mL), clotting assay, AT 105 ng/mL [1] was 53.3 mU/mL, the Activity (mU/mL), clotting assay, AT 1,050 ng/mL [1] was 53.4 mU/mL and the Activity (mU/mL), clotting assay, AT 10,500 ng/mL [1] was 53 mU/mL. The Activity (mU/mL), clotting assay, AT 105000 ng/mL [1] was 27 mU/mL, the Activity (mU/mL), clotting assay, AT 525000 ng/mL [1] was 0 mU/mL and the O.D, FX activation by MOD-5014 (0.7 ng/ml), AT 0.16 µg/ml [1] was 1.18 O.D. The O.D, FX activation by MOD-5014 (0.7 ng/ml), AT 0.8 µg/ml [1] was 1.07 O.D, the O.D, FX activation by MOD-5014 (0.7 ng/ml), AT 4 µg/ml [1] was 1.14 O.D and the O.D, FX activation by MOD-5014 (0.7 ng/ml), AT 20 µg/ml [1] was 1.11 O.D. For the same substance, the O.D, FX activation by MOD-5014 (0.7 ng/ml), AT 100 µg/ml [1] was 0.974 O.D, the O.D, FX activation by MOD-5014 (0.7 ng/ml), AT 500 µg/ml [1] was 0.975 O.D and the O.D, FX activation by MOD-5014 (0.7 ng/ml), AT 1680 µg/ml [1] was 0.656 O.D. It also gave an O.D, FX activation by MOD-5014 (0.7 ng/ml), control (no AT) [1] of 1.09 O.D, an O.D., FX activation by MOD-5014 (0.7 ng/ml) with 1 U/µl heparin, AT 0.032 µg/ml [1] of 1.24 O.D and an O.D., FX activation by MOD-5014 (0.7 ng/ml) with 1 U/µl heparin, AT 0.16 µg/ml [1] of 1.24 O.D. It also gave an O.D., FX activation by MOD-5014 (0.7 ng/ml) with 1 U/µl heparin, AT 0.8 µg/ml [1] of 1.25 O.D, an O.D., FX activation by MOD-5014 (0.7 ng/ml) with 1 U/µl heparin, AT 4 µg/ml [1] of 1.26 O.D and an O.D., FX activation by MOD-5014 (0.7 ng/ml) with 1 U/µl heparin, AT 20 µg/ml [1] of 1.08 O.D. It also gave an O.D., FX activation by MOD-5014 (0.7 ng/ml) with 1 U/µl heparin, AT 100 µg/ml [1] of 0.404 O.D, an O.D., FX activation by MOD-5014 (0.7 ng/ml) with 1 U/µl heparin, AT 500 µg/ml [1] of 0.153 O.D and an O.D., FX activation by MOD-5014 (0.7 ng/ml) with 1 U/µl heparin, AT 1680 µg/ml [1] of 0.197 O.D. The O.D., FX activation by MOD-5014 (0.7 ng/ml), AT III constant 20 µg/ml, heparin 0.002 U/µl [1] was 1.29 O.D, the O.D., FX activation by MOD-5014 (0.7 ng/ml), AT III constant 20 µg/ml, heparin 0.01 U/µl [1] was 1.14 O.D and the O.D., FX activation by MOD-5014 (0.7 ng/ml), AT III constant 20 µg/ml, heparin 0.25 U/µl [1] was 0.917 O.D. For the same substance, the O.D., FX activation by MOD-5014 (0.7 ng/ml), AT III constant 20 µg/ml, heparin 1.25 U/µl [1] was 0.896 O.D, the O.D., FX activation by MOD-5014 (0.7 ng/ml), AT III constant 20 µg/ml, heparin 6.25 U/µl [1] was 1.02 O.D and the O.D., FX activation by MOD-5014 (0.7 ng/ml), Control [1] was 1.41 O.D. For the same substance, the % Inhibition of clotting activity, AT 1.050 ng/mL [2] was 21%, the % Inhibition of clotting activity, AT 105 ng/mL [2] was 20% and the % Inhibition of clotting activity, AT 10,500 ng/mL [2] was 30%. For the same substance, the % Inhibition of clotting activity, AT 525000 ng/mL [2] was 100%, the Activity (mU/mL), clotting assay, AT 0 ng/mL (no inhibitor) [2] was 88.1 mU/mL and the Activity (mU/mL), clotting assay, AT 1.050 ng/mL [2] was 69.5 mU/mL. It also gave an Activity (mU/mL), clotting assay, AT 10.5 ng/mL [2] of 68.4 mU/mL, an Activity (mU/mL), clotting assay, AT 105 ng/mL [2] of 70.2 mU/mL and an Activity (mU/mL), clotting assay, AT 1,050 ng/mL [2] of 66.8 mU/mL. The Activity (mU/mL), clotting assay, AT 10,500 ng/mL [2] was 61.5 mU/mL, the Activity (mU/mL), clotting assay, AT 105000 ng/mL [2] was 30.6 mU/mL and the Activity (mU/mL), clotting assay, AT 525000 ng/mL [2] was 0 mU/mL. For the same substance, the O.D, FX activation by NovoSeven (0.7 ng/ml), AT 0.16 µg/ml [2] was 1.23 O.D, the O.D, FX activation by NovoSeven (0.7 ng/ml), AT 4 µg/ml [2] was 1.17 O.D and the O.D, FX activation by NovoSeven (0.7 ng/ml), AT 20 µg/ml [2] was 1.15 O.D. The O.D, FX activation by NovoSeven (0.7 ng/ml), AT 100 µg/ml [2] was 1.14 O.D, the O.D, FX activation by NovoSeven (0.7 ng/ml), AT 500 µg/ml [2] was 0.933 O.D and the O.D, FX activation by NovoSeven (0.7 ng/ml), AT 1680 µg/ml [2] was 0.784 O.D. The O.D, FX activation by NovoSeven (0.7 ng/ml), control (no AT) [2] was 1.28 O.D, the O.D., FX activation by NovoSeven (0.7 ng/ml) with 1 U/µl heparin, AT 0.032 µg/ml [2] was 1.16 O.D and the O.D., FX activation by NovoSeven (0.7 ng/ml) with 1 U/µl heparin, AT 0.16 µg/ml [2] was 1.19 O.D. The O.D., FX activation by NovoSeven (0.7 ng/ml) with 1 U/µl heparin, AT 0.8 µg/ml [2] was 1.22 O.D, the O.D., FX activation by NovoSeven (0.7 ng/ml) with 1 U/µl heparin, AT 4 µg/ml [2] was 1.17 O.D and the O.D., FX activation by NovoSeven (0.7 ng/ml) with 1 U/µl heparin, AT 20 µg/ml [2] was 1.04 O.D. It also gave an O.D., FX activation by NovoSeven (0.7 ng/ml) with 1 U/µl heparin, AT 100 µg/ml [2] of 0.503 O.D, an O.D., FX activation by NovoSeven (0.7 ng/ml) with 1 U/µl heparin, AT 500 µg/ml [2] of 0.201 O.D and an O.D., FX activation by NovoSeven (0.7 ng/ml) with 1 U/µl heparin, AT 1680 µg/ml [2] of 0.141 O.D. The O.D., FX activation by NovoSeven (0.7 ng/ml), AT III constant 20 µg/ml, heparin 0.002 U/µl [2] was 1.24 O.D, the O.D., FX activation by NovoSeven (0.7 ng/ml), AT III constant 20 µg/ml, heparin 0.01 U/µl [2] was 1.2 O.D and the O.D., FX activation by NovoSeven (0.7 ng/ml), AT III constant 20 µg/ml, heparin 0.25 U/µl [2] was 1.04 O.D. For the same substance, the O.D., FX activation by NovoSeven (0.7 ng/ml), AT III constant 20 µg/ml, heparin 1.25 U/µl [2] was 0.98 O.D, the O.D., FX activation by NovoSeven (0.7 ng/ml), AT III constant 20 µg/ml, heparin 6.25 U/µl [2] was 1 O.D and the O.D., FX activation by NovoSeven (0.7 ng/ml), Control [2] was 1.43 O.D.
